Data reported in US20250074994A1 (Molecular Partners, published 2025).
Positions count from the first letter of the chain named.

How the values were obtained:
[1] = molecular target: T1, human CD70 expressed on Molm-13 tumor cells (human, UniProt P32970 1-193); experiment: flow cytometry (MFI) on CD70-expressing Molm-13 N1 tumor cells
T1 construct: whole, on cells; also called CD70 expressed on the surface of cells; CD70-expressing tumor cells (Molm-13 N1)
T1 sequence (looked up): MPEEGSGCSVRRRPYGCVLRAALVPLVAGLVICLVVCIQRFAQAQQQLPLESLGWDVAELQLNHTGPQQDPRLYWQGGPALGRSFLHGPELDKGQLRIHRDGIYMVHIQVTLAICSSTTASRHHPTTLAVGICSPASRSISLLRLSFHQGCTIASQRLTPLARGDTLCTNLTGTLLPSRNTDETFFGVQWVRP
Experimental: Binding of binding proteins of the invention to CD70 expressed on the surface of cells was analyzed by fluorescence activated cell sorting (FACS) flow cytometry. For this purpose, CD70-expressing tumor cells (Molm-13 N1) were seeded at 100,000 cells per well in a 96 well plate. DARPin® protein #2, DARPin® protein #9, DARPin® protein #24 and DARPin® protein #25 were titrated down in 1:5 dilution ratio starting at 2000 nM. Tumor cells were resuspended with diluted DARPin proteins and incubated for 60 minutes at 4° C., The assay was performed in PBS including 2% fetal bovine serum without human serum albumin (HSA). After washing twice with Phosphate Buffer saline (PBS), DARPin® protein specific tumor cell binding was detected by adding unlabeled primary anti-rabbit DARPin® antibody (anti-rabbit 1-1-1 antibody, CePower) at 2 μg/ml. An incubation step of at least 30 minutes at 4° C. followed. Afterwards, cells were washed with PBS and a secondary goat anti-rabbit antibody labelled with Alexa Fluor 488 antibody (ThermoFisher) at 2 μg/ml was added. The same incubation conditions applied. Finally, the cells were washed twice and resuspended In Cytofix fixation buffer (BD Biosciences) for 15 min at room temperature (RT). Median fluorescence intensities (MFI) of Alexa Fluor 488 DARPin® protein labelled tumor cells were measured by Attune NXT (ThermoFisher) using FlowJo software for analyses and GraphPad Prism 8 for data plotting.

[2] = molecular target: T2, biotinylated recombinant human CD70 (extracellular domain, Fc tag) (human, UniProt P32970 52-193, chemically biotinylated using 5-fold excess of Biotin); experiment: SPR (ProteOn XPR36), bio.CD70 immobilized on NLC chip, DARPin as analyte
T2 construct: Bought from ACROBiosystems; also called bio.hCD70; Bio.CD70; not shown: C-terminal Fc Tag of the bought protein (ACROBiosystems)
T2 sequence: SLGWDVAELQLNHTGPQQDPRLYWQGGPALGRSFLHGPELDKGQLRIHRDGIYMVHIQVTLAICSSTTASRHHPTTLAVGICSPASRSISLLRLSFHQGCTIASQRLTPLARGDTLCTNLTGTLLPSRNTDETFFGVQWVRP
Experimental: The binding affinities of purified ankyrin repeat proteins on recombinant human CD70 target were analyzed using a ProteOn XPR36 instrument (BioRad) and the measurement was performed according standard procedures known to the person skilled in the art.
Bio.CD70 was immobilized on a NLC chip and the ankyrin repeat proteins were applied as titration with a starting concentration of 100 nM and then titrated down to 1.2 nM. The signals were double referenced against the PBST-treated control lane of L1 and A6. Analyte injection was performed for 120 s followed by a dissociation for 1500 s.

[3] = molecular target: T2, biotinylated recombinant human CD70 …; experiment: SPR, bio.hCD70 on neutravidin-coated GLC chip, DARPin as analyte, 1:1 Langmuir fit
Experimental: Moreover, the binding affinities of two additional purified ankyrin repeat proteins on recombinant human CD70 target were measured and analyzed with a procedure as described above for DARPin proteins #2, #3, #5 to #12. Briefly, neutravidin was precoated on a GLC chip (BioRad) to a level of 5300 RU. In a second step, bio.hCD70 was immobilized to a level of 510 RU. The binding of DARPin protein #24 and DARPin protein #25 to bio.hCD70 was measured by Injecting the DARPin® molecule in a serial dilution of […]. For all described measurements, an association of 120 s and dissociation of 1200 s using a constant flow of 100 μl/min were applied. The CD70 target was regenerated with 4M MgCl₂ applied for 30s. The signals were double referenced against interspot and the running buffer (PBST: PBS pH 7.4 containing 0.005% […]) treated control lane A6. The 1:1 Langmuir model was used for the fitting.

[4] = molecular target: T2, biotinylated recombinant human CD70 …; experiment: crude extract HTRF
[5] = molecular target: T2, biotinylated recombinant human CD70 …; experiment: crude cell extract HTRF with 2 nM biotinylated hCD70
Description: Selected clones bind specially to human CD70 as shown by crude extract HTRF Individual selected ankyrin repeat proteins specifically binding to hCD70 in solution were identified by a Homogeneous Time Resolved Fluorescence (HTRF) assay using crude extracts of ankyrin repeat protein-expressing Escherichia coli cells using standard protocols. Ankyrin repeat protein clones selected by ribosome display were cloned into derivatives of the pQE30 (Qiagen) expression vector (pMPDV25), transformed into E. coli XL1-Blue (Stratagene), plated on LB-agar (containing 1% glucose and 50 μg/ml ampicillin) and then incubated overnight at 37° C. […]
The extract of each lysed clone was applied as a 1:2000 dilution (final concentration) in PBSTB (PBS supplemented with 0.1% Tween 20® and 0.2% (w/v) BSA, pH 7.4) together with 2 nM (final concentration) biotinylated hCD70, 1:400 (final concentration) of anti-strep-Tb HTRF antibody—FRET donor conjugate (Cisbio) and 1:400 (final concentration) of anti-6His-D2 antibody FRET acceptor conjugate (Cisbio) to a well of 384 well plate and incubated for 60 minutes at RT. The HTRF was read-out on a Tecan M1000 using a 340 nm excitation wavelength and a 665±10 nm emission filter.

[6] = molecular target: T1, human CD70 expressed on Molm-13 tumor …; experiment: cell-based or functional assay

B1: DARPin® protein #2 (designed binder)
chain: MRGSHHHHHHGSDLGYKLLQAAYDGQLDEVRILLKAGADVNAKDSRGQTPLHYAASIGHLEIVEVLLKAGADVNAKDDHGWTPLHLAAWSGHLEIVEVLLKAGADVNAQDQEGTTPADLAAVQGHQDIAEVLQKAA
notes: Parent of DARPin protein #24
- EC50 [1]: 4.9 nM
- Kd [2]: 0.45 nM

B2: DARPin® protein #24 (designed binder)
chain: B1 chain with Y16I, Q20T, S45L, S56G, I57L, D78L, Q111V, T114V
notes: expressed as monovalent designed ankyrin repeat protein with N-terminal His-tag
- Kd [3]: 0.0081 nM
- EC50 [1]: 5.2 nM

B3: DARPin® protein #1 (designed binder)
chain: B1 chain with L27D, K35A, G124S, Q126E
- binding result [4]: binds

B4: DARPin® protein #4 (designed binder)
chain: MRGSHHHHHHGSDLGFKLLQAALRGQDDEVRILLAAGADVNAKDQLGTTPLHLAAHYGHLEIVEVLLKAGADVNAKDVWGDTPLHLAAQHGHLEIVEVLLKAGADVNAQDRAGYTPADLAAQEGHEDIAEVLQKAA
- binding result [5]: binds

B5: DARPin® protein #26 (designed binder)
chain: MRGSHHHHHHGSDLGIKLLTAAYDGQLDEVRILLKAGADVNAKDLRGQTPLHYAAGLGHLEIVEVLLKAGADVNAKDLHGWTPLHLAAWSGHLEIVEVLLKAGADVNAQDVEGVTPADLAAVQGHQDIAEVLQKAAGSPTPTPTTPTPTPTTPTPTPTGSDLGQKLLEAAWAGQDDEVRELLKAGADVNAKNSRGWTPLHTAAQTGHLEIFEVLLKAGADVNAKNDKRVTPLHLAAALGHLEIVEVLLKAGADVNARDSWGTTPADLAAKYGHQDIAEVLQKAA
- EC50 of in vitro T-cell activation and tumor cell killing (Molm-13-N1 target cells), improvement over the parental binding protein [6]: ~7 fold

B6: DARPin® protein #27 (designed binder)
chain: MRGSHHHHHHGSDLGKKLLQAARAGQLDEVRELLKAGADVNAKDQQGLTPLHIAANLGHLEIVEVLLKAGADVNAKDLFGLTPLHLAAFEGHLEIVEVLLKAGADVNAKDQHGATPLHLAAWVGHLEIVEVLLKAGADVNAQDKSGKTPADLAARAGHQDIAEVLQKAAGSPTPTPTTPTPTPTTPTPTPTGSDLGQKLLEAAWAGQDDEVRELLKAGADVNAKNSRGWTPLHTAAQTGHLEIFEVLLKAGADVNAKNDKRVTPLHLAAALGHLEIVEVLLKAGADVNARDSWGTTPADLAAKYGHQDIAEVLQKAA
- EC50 of in vitro T-cell activation and tumor cell killing (Molm-13-N1 target cells), improvement over the parental binding protein [6]: ~31 fold

B7: DARPin® protein #9 (designed binder)
chain: MRGSHHHHHHGSDLGKKLLQAARAGQLDEVRELLKAGADVNAKDQAGLTPLHIAAATGHLEIVEVLLKAGADVNAKDFSGLTPLHLAAFEGHLEIVEVLLKAGADVNAKDQHGQTPLHLAAWTGHLEIVEVLLKAGADVNAQDKSGKTPADLAARAGHQDIAEVLQKAA
notes: Parent of DARPin protein #25
- EC50 [1]: 475 nM
- Kd [2]: 27 nM

B8: DARPin® protein #25 (designed binder)
chain: B7 chain with A46Q, A56N, T57L, F78L, S79F, Q114A, T123V
notes: as for B2
- Kd [3]: 13 nM
- EC50 [1]: 27 nM
